Measured values as given in patent US8535680B2, “Anti-LPS factor from Parietaria judaica and methods of use thereof” (Consiglio Nazionale Delle Ricerche, priority 2008, dated 2013).
No end group written: not given here.

B1: QETCGTMVRALMPCLPFVQGKEKEPSKGCCSGAKRLDGETKTGPQRVHACECIQTAMKTYSDIDGKLVSEVPKHCGIVDSKLPPIDVNMDCKTVGVVPRQPQLPVSLRHGPVTGPSDPAHKARLERPQIRVPPPAPEKA (protein)
chain: QETCGTMVRALMPCLPFVQGKEKEPSKGCCSGAKRLDGETKTGPQRVHACECIQTAMKTYSDIDGKLVSEVPKHCGIVDSKLPPIDVNMDCKTVGVVPRQPQLPVSLRHGPVTGPSDPAHKARLERPQIRVPPPAPEKA
notes: Recombinant isoform of Parietaria judaica major allergen Parj1, 139 aa, containing the Par37 region

Key:
[1] = system: heparinised blood from Pj allergic subjects; assay: Histamine release from blood of Pj allergic patients; type: cell-based, human; settings: 0.0001 to 1 μg/ml; Pj allergic subjects n=5; FIG. 9
Experimental: FIG. 9: Testing of histamine release from blood of Pj allergic patients. The antigens used were: rParj1 (line with squares, denominated Pj1) and the Par37 peptide (line with triangles). On the x-axis the amounts of protein used, and on the y-axis the percentage of histamine released with respect to the percentage of total histamine present in the patient's mastocytes are reported.
The histamine release assay was carried out by using heparinised blood from Pj allergic subjects (n=5) and an allergen concentration scale ranging from 0.0001 and 1 μg/ml. Release protocol was carried out as previously described (Colombo, P., et al., Identification of an immunodominant IgE epitope of the Parietaria Judaica major allergen. J. Immunol, 1998. 160(6): p. 2780-5). The data reported in FIG. 9 show the percentage of release obtained after stimulation with Parj1 allergen.

human erythrocytes = assay: Hemolysis test; type: cell-based; settings: 0.0025-0.025-0.25-2.5-25 mM; 6% erythrocytes; reading at 415 nm; FIG. 6
Experimental: FIG. 6: Hemolysis test with human erythrocytes. The assay is capable of describing possible hemolysis induced after incubation with Par37 peptide at different concentrations. There were used 1×PBS as negative control and 0.1% Triton X100 as positive control. Optical Densities measured at […] indicate hemoglobin release in the medium following cell lysis.
For the hemolysis test, peripheral blood, collected from a donor, in heparin was used. A solution of 6% human erythrocytes was prepared. Erythrocyte concentration was controlled by reading the optical density of an hemolysate of the cell suspension thus made: 0.5 ml blood+7 ml distilled water should give a reading of 0.7 O.D. at the spectrophotometer at 541 nm. Erythrocytes were incubated in triplicate with an increasing concentration of Par37 (0.0025-0.025-0.25-2.5-25 mM) and with 1×PBS as negative control and a 0.1% solution of Triton X100 as positive control. Sample reading was carried out at 415 nm.

HeLa cells = assay: Cytotoxicity test with HeLa cells (MTS, CellTiter 96 AQueous One); type: cell-based, human; settings: 0.5-5-50 μg/ml, 48 h; FIG. 5
Experimental: FIG. 5: Cytotoxicity test carried out with HeLa cells in culture. The assay describes the bioreduction of MTS (Owen's Reagent) produced by enzymes having dehydrogenase activity present in metabolically active cells.
The cytotoxity tests were carried out on HeLa cell lines growing in adhesion. Cell lines were maintained in RPMI 1640 culture medium containing 10% fetal calf serum and 0.1% antibiotics (penicillin, streptomycin and gentamycin); cultivated under humid 5% CO2 atmosphere at 37° C. To carry out the cytotoxicity test, the system CellTiter 96 AQueous One Solution Cell Proliferation Assay by Promega was used. In short, Hela cells were resuspended in a 100 μl volume of medium at a concentration of 10,000 cells/ml, then seeded on 96-well flat bottom plates and left to adhere in incubator at 37° C. for 3 h. Thereafter, Par37 peptide was added at increasing concentrations (0.5-5-50 μg/ml). The plate was incubated at 37° C. in 5% CO2 for further 48 h. Then 20 μl of CellTiter 96 AQueous One Solution reagent were added. Cells were thus incubated for 1 h at 37° C. in a CO2 incubator. The test was carried out in triplicate and compared to a row of blanks containing exclusively culture medium. After incubation, a spectrophotometer reading was carried out, measuring absorbance at 490 nm.

[2] = system: LPS (Escherichia coli, serotype 026:B6); type: binding
[3] = system: PBMC from Pj allergic patients and non-allergic subjects; assay: PBMC proliferation (Cell Proliferation ELISA, BrdU); type: cell-based, human; settings: 0.1, 1 and 10 μg/ml, 5 days; 3 Pj allergic patients and 3 non-allergic subjects; FIG. 7
Experimental: FIG. 7: Analysis of PBMC proliferation of 3 Pj allergic patients and 3 healthy subjects. Stimulation was conducted by adding to the culture medium rParj1 and Par37 synthetic peptide at a concentration of 0.1, 1 and 10 μg/ml. Numerical values on the y-axis indicate proliferation indexes with respect to the unstimulated sample. White histograms identify PBMC stimulated by Parj1, black histograms identify PBMC stimulated by Par37 peptide. Horizontal bars indicate significance values (values above the bar indicate a positive stimulation; values below the bar indicate absence of proliferation).
PBMC from Pj allergic patients (n=3) and non-allergic subjects (n=3) were purified by Ficoll gradient and resuspended in complete RPMI (10% AB serum). Cells were stimulated 5 days with 0.1, 1 and 10 μg/ml rParj1 and Par37. For the determination of stimulation indexes, cells were treated according to what described in the Cell Proliferation ELISA kit, BrdU (colorimetric) (Roche).

[4] = system: PBMC of non-allergic subjects; assay: ELISA of IFN-γ release from PBMC stimulated with the antigen itself; settings: 1 and 10 μg/ml; healthy subjects n=4; FIG. 8
Experimental: Black bars indicate the values of the unstimulated sample (negative control), checkered bars the values of cells stimulated by rParj1.01, white bars the values obtained from cells stimulated by Par37 peptide.
(IFN-γ) cytokine production in supernatants after stimulation with the various antigens was evaluated by ELISA, using commercial kits and following the manufacturers' (GE healthcare, IFNg, Human, Biotrak) instructions.

Row | Molecule | histamine release (anaphylactic activity) [1] | hemolytic effect on human erythrocytes (human erythrocytes) | toxic effect on HeLa cells (MTS bioreduction, absorbance 490 nm) (HeLa cells) | LPS-binding capability ([2]; FIG. 3, native isoforms of Parj1) | lowest dilution with positive reaction to the endotoxin in the LAL test (endpoint) ([2]; eluate of HisTrap column loaded with 100 μg protein, then 100 μg LPS, LAL sensitivity 0.12 EU) | cell proliferation (lymphoproliferative activity) of PBMC [3] | IFN-γ release from PBMC induced by the antigen itself [4]
1 | LPVSLRHGPVTGPSDPAHKARLERPQIRVPPPAPEKA [Par37] | no histamine release is observed | no hemolytic effect | no toxic effect |  |  |  | 
2 | B1 |  |  |  | has the LPS-binding capability | 1/256 | capable of inducing cell proliferation in all allergic patients | impressive secretion of cytokine
